Data published in the RNAGym collection of RNA variant scans (doi:10.7554/elife.90254).

B1: OR4K15 (parent)
chain: GUUAACGGUCAUAGGCCAUGGAAACUAGGAGCACCAUUUCGCUGCCAGUGAAGAAAUGAACAAAGAAAAUCUGGGCCAGGCAGGCAUCAAAAGAAAUAGUCUUGCGCUCAACCAGAAAGUCUGUAAUCAUUUUAAGGGUA

Variants of: B1
Assay: self-cleavage, relative activity (ratio to wild type); higher = more cleavage; in vitro, sequencing; the parent is a self-cleaving ribozyme
U87C U108G gave a self-cleavage of 0.02. With U87C A94U the self-cleavage was 1.37. U87C A94G gave a self-cleavage of 1.04. In the case of G84A A117G, the self-cleavage is reported as 2.38. With U87C U102A the self-cleavage was 0.83. Variant U87C U102G has a self-cleavage of 0.27. Work on A86G C109U yielded a self-cleavage of 0.22. In the case of G83U U108C, the self-cleavage is reported as 0.02. In the case of U87A A92G, the self-cleavage is reported as 2.61. A86U U87C showed a self-cleavage of 1.51. Work on A86G U87C yielded a self-cleavage of 0.87. For A86G A96G, the self-cleavage was 0.71. For A86G A96U, the self-cleavage was 1.37. A86G A129U showed a self-cleavage of 0.57. Work on C85U U122C yielded a self-cleavage of 0.9. With G84U A110U the self-cleavage was 0.44. In the case of A86G A114U, the self-cleavage is reported as 0.03. In the case of A86G A114G, the self-cleavage is reported as 0.48. A86G A114C gave a self-cleavage of 0.06. With U87C U120A the self-cleavage was 0.99. U87C A116U gave a self-cleavage of 0.17. With A86G the self-cleavage was 1.16. A86U showed a self-cleavage of 1.77. In the case of A86C, the self-cleavage is reported as 1.22. In the case of A86U U102A, the self-cleavage is reported as 1.36. In the case of G84A U102G, the self-cleavage is reported as 1.29. Variant G84A U102A has a self-cleavage of 2.02. Variant A86U C101A has a self-cleavage of 0.09. U87C A117G gave a self-cleavage of 0.7. U87C A117C gave a self-cleavage of 0. A86U A91U gave a self-cleavage of 1.77. With A86U U100C the self-cleavage was 2.52. For A86G G137A, the self-cleavage was 1.83. A86G A116G showed a self-cleavage of 0.79. U87C C101A gave a self-cleavage of 0.14. For A86U A89C, the self-cleavage was 1.51. U87A A89C gave a self-cleavage of 0.99. For C85A A125G, the self-cleavage was 0.72. U87A U133C gave a self-cleavage of 1.05. For U87A U133G, the self-cleavage was 1.25. G84C A111G gave a self-cleavage of 0.02. In the case of A86C U108A, the self-cleavage is reported as 0.16. A86C A114G showed a self-cleavage of 0.24. With A86U U120C the self-cleavage was 1.11. Variant U87C U100C has a self-cleavage of 2.72. Work on U87C U100A yielded a self-cleavage of 0.18. Variant A86G U122C has a self-cleavage of 0.88. Variant A86G U122A has a self-cleavage of 1.61. In the case of U87C A90C, the self-cleavage is reported as 0.98. Work on U87C A90G yielded a self-cleavage of 0.3. Work on G83A U131C yielded a self-cleavage of 1.28. A86U C112U showed a self-cleavage of 0.02. In the case of A86G U102G, the self-cleavage is reported as 0.39. In the case of A86G U102C, the self-cleavage is reported as 2.36. For C85U A96G, the self-cleavage was 1.24. With A86G A91C the self-cleavage was 0.64. Work on G83U U102C yielded a self-cleavage of 0.35. G84A U108C gave a self-cleavage of 0.01. Work on A86G A134G yielded a self-cleavage of 1.25. Work on U87C C109U yielded a self-cleavage of 0.43. Variant A86G U97A has a self-cleavage of 0.97. U87C A111G showed a self-cleavage of 0.03. Work on U87C A111C yielded a self-cleavage of 0.02. Variant A86G A98G has a self-cleavage of 0.52. With A86G U131C the self-cleavage was 1.23. Work on U87C A96U yielded a self-cleavage of 1.48. U87C A96G gave a self-cleavage of 1.81. Variant U87C A95C has a self-cleavage of 0.32. Work on U87C A95G yielded a self-cleavage of 1.35. In the case of G84A A96U, the self-cleavage is reported as 2.46. Variant G84A A96G has a self-cleavage of 2.43. For C85A, the self-cleavage was 1.18. For C85G, the self-cleavage was 1.18. C85U showed a self-cleavage of 1.15. Variant A86U U108C has a self-cleavage of 0.02. Work on A86G A89C yielded a self-cleavage of 0.67. A86G A89G gave a self-cleavage of 1.42. A86G A118U gave a self-cleavage of 0.52. Work on A86G A118G yielded a self-cleavage of 1.45. In the case of U87A A126G, the self-cleavage is reported as 1.66. Work on A86C C109U yielded a self-cleavage of 0.25. U87C G138A gave a self-cleavage of 1.2. U87C A126U showed a self-cleavage of 1.18. Work on U87C A126G yielded a self-cleavage of 0.82. Work on U87A A110C yielded a self-cleavage of 0.25. U87A A110G gave a self-cleavage of 0.15. A86G G115A showed a self-cleavage of 0.14. With G83U C88U the self-cleavage was 1.11. Work on A86U U139A yielded a self-cleavage of 1.53. In the case of U87C G123A, the self-cleavage is reported as 1.78. Work on U87C G123C yielded a self-cleavage of 1.6. For A86U U124A, the self-cleavage was 1.02. G84C U100C gave a self-cleavage of 0.27. With A86U A98G the self-cleavage was 0.37. In the case of A86U A94G, the self-cleavage is reported as 1.72. With A86G A94U the self-cleavage was 2.2. U87A A95G gave a self-cleavage of 0.76. C85A U100C gave a self-cleavage of 0.72. In the case of U87C G137A, the self-cleavage is reported as 2.3. G84A A92U showed a self-cleavage of 2.15. A86G C112A gave a self-cleavage of 0. Variant A86G A110G has a self-cleavage of 0.16. For A86G U124A, the self-cleavage was 0.4. Work on A86G A111G yielded a self-cleavage of 0.02. Work on A86G A111U yielded a self-cleavage of 0.11. A86U U122C showed a self-cleavage of 1.74. With C85G A86U the self-cleavage was 0.31. Work on A86G U133C yielded a self-cleavage of 2.05. Work on G83U A110G yielded a self-cleavage of 0.06. Work on U87A G137A yielded a self-cleavage of 1.96. Variant U87A A90G has a self-cleavage of 1.29. A86G U108C gave a self-cleavage of 0.02. For U87A A129C, the self-cleavage was 0.8. U87C showed a self-cleavage of 0.94. Variant U87A has a self-cleavage of 1.65. In the case of G83U U127C, the self-cleavage is reported as 0.29. In the case of C85U U120G, the self-cleavage is reported as 0.64. A86C U102C gave a self-cleavage of 1.29. Work on A86G U132A yielded a self-cleavage of 1.2. Variant A86U U130C has a self-cleavage of 1.44. U87A A118G gave a self-cleavage of 1.26. Variant A86U A129U has a self-cleavage of 1.13. In the case of A86U A129G, the self-cleavage is reported as 2.26. Work on G84U A114G yielded a self-cleavage of 0.45. In the case of C85U A116U, the self-cleavage is reported as 0.17. Variant G84C A89G has a self-cleavage of 0.34. U87C A129G showed a self-cleavage of 1.14. For U87C A129U, the self-cleavage was 0.73. U87A U122A showed a self-cleavage of 1.73. U87A U122C showed a self-cleavage of 1.28. For A86C U127C, the self-cleavage was 0.83. Variant C85U A91G has a self-cleavage of 0.52. Variant A86U A117U has a self-cleavage of 1.56. Work on C85U A140G yielded a self-cleavage of 1.26. Work on U87C A118G yielded a self-cleavage of 0.75. For U87C A118U, the self-cleavage was 0.9. For A86C A95G, the self-cleavage was 1.34. U87A A94G gave a self-cleavage of 1.64. For G83U U122A, the self-cleavage was 0.15. In the case of U87A A117G, the self-cleavage is reported as 1.12. With A86U U127A the self-cleavage was 2.92. Work on G84C A114G yielded a self-cleavage of 0.05. Variant U87C A114G has a self-cleavage of 0.43. A86C U132C gave a self-cleavage of 0.9. With A86G U103C the self-cleavage was 0.45. In the case of A86G U103A, the self-cleavage is reported as 0.93. With G84U U108C the self-cleavage was 0.02. Work on U87C U103G yielded a self-cleavage of 0.01. U87C U103C gave a self-cleavage of 0.95. Work on G84A A86G yielded a self-cleavage of 1.73. U87A U120C gave a self-cleavage of 1.28. With U87A U100C the self-cleavage was 2.28. Work on A86G G104A yielded a self-cleavage of 0.02. Work on U87A A134G yielded a self-cleavage of 2.21. In the case of A86G U120C, the self-cleavage is reported as 0.35. With A86G A140U the self-cleavage was 1.3. In the case of A86G A140G, the self-cleavage is reported as 0.77. In the case of U87C A89G, the self-cleavage is reported as 1.73. Variant U87A A125G has a self-cleavage of 0.68. A86U A140G gave a self-cleavage of 1.62. With C85G A96G the self-cleavage was 1.02. Variant U87A A116G has a self-cleavage of 0.28. A86G A90G gave a self-cleavage of 1.13. A86G C113U gave a self-cleavage of 0.03. With A86G A135U the self-cleavage was 2.39. With C85A C109A the self-cleavage was 0.19. A86U A126G showed a self-cleavage of 1.63.
